Assays:
tyrosinase [1] = experiment: Tyrosine hydroxylase enzyme assay on extracts of treated melan-a cells; assay type: cell-based, murine; details: extracts of melan-a cells cultured 5 days; 10 nM
Experimental: Assays for melanogenic catalytic activities as described below were carried out at pH 6.8, 37° C. for 60 minutes. (1) Tyrosine hydroxylase activity was measured using the [^3H]tyrosine assay (Hearing and Ekel, 1976; Hearing, 1987). This method specifically measures the tritiated water produced during the hydroxylation of tyrosine to DOPA. (2) DOPA oxidase activity was measured using incorporation of [3-^14C]DOPA into acid-insoluble melanin as detailed previously (Aroca et al., 1993). (3) DOPAchrome tautomerase activity was measured by HPLC as the disappearance of DOPAchrome substrate and the production of DHICA rather than DHI; data are converted to pmol products by comparison with known standards. The HPLC assay was detailed previously (Palumbo et al., 1987; Tsukamoto et al., 1992). (4) DHI oxidase and DHICA oxidase activities were measured by HPLC as the disappearance of these substrates from reaction mixtures compared to controls for spontaneous auto-oxidation; data are converted to pmol by comparison with known standard (Aroca et al., 1993). (5) Melanin production was measured using incorporation of [^14C]tyrosine into acid-insoluble melanin, also as detailed previously (Hearing and Ekel, 1976; Hearing, 1987); pmol melanin produced are calculated from the radioactive product. […]

MSH receptor = experiment: Northern blotting of MSH receptor RNA in B16F10 melanoma cells; assay type: cell-based; details: B16F10 murine melanoma cells, 10 nM, 5 days
Experimental: (§1) The melan-a melanocyte cell line was used as described in Example 1. This clonal line was derived from C57B1 nonagouti black mice. The growth medium was minimum essential medium containing 200 nM TPA. B16F10 melanoma cells were also used to compare the effect of agouti protein with melan-a. These cells were grown in Dulbecco's modified Eagle medium.
(§2) Recombinant agouti protein was purified from baculovirus system by Dr. Michael Ollmann in Dr. Gregory Barsh's laboratory by methods known in the art. 2×10^6 cells were seeded per 15 cm diameter dish. The medium was changed everyday, and fresh agouti protein and/or αMSH added everyday usually at 10 nM. To examine transcriptional regulation, total RNA was isolated and Northern blotting performed by methods described in Example 1. The A26 probe to the MSH-R was provided by Dr. R. Cone and is described in Mountjoy et al. Science 257:1248-1251, 1992. At the translational level, metabolic labeling was used in conjunction with immunoprecipitation as described in Example 1. Western blotting and enzyme assay was used to examine function.
(§3) The effect of agouti protein and MSH observed for melan-a cells was confirmed using B16F10 murine melanoma cells. Similar effects were observed (FIG. 13).

[2] = tested on: melan-a murine melanocytes; experiment: Chemical analysis of eumelanin and pheomelanin contents of melan-a melanocytes; assay type: cell-based; details: black melan-a murine melanocytes in vitro
Experimental: Chemical degradation and analysis of eumelanin and pheomelanin contents were performed and quantitated as previously reported (Ito and Fujita, 1985).

melan-a cells = experiment: Pigmentation and ultrastructure of melan-a cells; assay type: cell-based, murine
Experimental: Cells were harvested, centrifuged for 5 minutes at 14,000 g at 4° C., and fixed for 2 hours at 23° C. in 2% glutaraldehyde-2% paraformaldehyde in 0.1 M sodium cacodylate buffer, pH 7.3; the fixative was then removed and the samples were stored in phosphate-buffered saline containing 2% sucrose at 4° C. Samples were subsequently processed with graded alcohols and embedded in epoxy resin for electron microscopy in the usual manner. Thin sections were stained with uranyl acetate and lead citrate, viewed and photographed with a Zeiss EM10 electron microscope, as previously detailed (Prota et al., 1995).

MC1-R = experiment: Inhibition of activation of the MC1-R; assay type: biochemical; details: preparation ≧90% pure
Text: (§4) Recombinant mouse ASP was generated and purified using a baculovirus expression system as described in Ollmann et al. (in preparation). […] The experiment described in FIG. 2 has also been repeated with an ASP preparation ≧99% pure with virtually identical results.

tyrosinase [3] = experiment: Northern blotting of tyrosinase RNA in B16F10 melanoma cells; assay type: cell-based; details: B16F10 murine melanoma cells, 10 nM, 5 days
Experimental: as §1, §2, §3

[4] = Retention of activity at 37° in water or tissue culture media; assay type: physicochemical
Text: as §4

| Molecule | tyrosine hydroxylase (tyrosinase [1]) [pmol/μg protein/hr] | MSH receptor expression (MSH receptor) | eumelanin production [2] | synthesis of pheomelanin [2] | pigmentation of the cells (melan-a cells; black melan-a murine melanocytes in vitro) | amount of melanosomes (ultrastructural study) (melan-a cells; melan-a cells, 10 nM, 5 days) | melanosome structure (ultrastructural study) (melan-a cells; melan-a cells, 10 nM, 5 days) | color of cell pellet (melan-a cells; melan-a cells, 10 nM, 5 days incubation) | Ki (MC1-R) [nM] | tyrosinase RNA (tyrosinase [3]) | time for which activity is retained [4] |
| --- | --- | --- | --- | --- | --- | --- | --- | --- | --- | --- | --- |
| α-melanocyte stimulating hormone [MSH, reference compound] | 8.7 ± 2.8 | – | – | – | – | – | – | – | – | – | – |
| agouti protein: Recombinant murine agouti signal protein purified from a baculovirus expression system (protein) MDVTRLLLATLVSFLCFFTVHSHLALEETLGDDRSLRSDSSMNSLDFSSVSIVALNKKSKKISRKEAEKRKRSSKKKASMKKVARPPPPSPCVATRDSCKPPAPACCDPCASCQCRFFGSACTCRVLNPNC | −1.2 ± 0.2 | elevated | significantly decreased | increased | markedly inhibited | decreased | pheomelanosome-like structures were found | changed from black to light brown | 0.22 | did not reduce tyrosinase RNA below baseline | more than 48 hours |

Source: US6579848B1, “Depigmenting activity of agouti signal protein and peptides thereof” (The United States of America as represented by the …, priority 1995, dated 2003)
